This note sets out measurements from patent US20210371492A1 (INNOVATIVE CELLULAR THERAPEUTICS, published 2021).

For test [1], the target named is T1, GCC-His fusion protein (recombinant extracellular region of GCC with His tag) (human, UniProt P25092 24-430).
T1 construct: also called GUC2C-His; recombinant GCC extracellular domain
The test is described as follows: BIAcore (SPR), GCC-His as mobile phase. (Surface plasmon resonance follows binding to a sensor surface in real time, without labels.)

For test [2], the target named is T1, GCC-His fusion protein (recombinant …). The test is described as follows: ELISA, GUC2C-his coat 3ug/ml, antibody titrated, OD490.
The target is the same in test [3]. The test is described as follows: phage-ELISA, Fab phage library screened on GCC-His. Background: ELISA stands for enzyme-linked immunosorbent assay.

Where a chain is given by its changes, count along the chain named.

B1: R8C11VH/L4G6VK-mIgG2a (antibody, V domains shown)
VH: QVQLQQWGAGLLKPSETLSLTCAVFGGSFSGYYWSWIRQPPGKGLEWIGEINHRGNINDNPSLKSRVTISVDTSKNQFALKLSSVTAADTAVYYCARERGYSFGNYDHWGQGTLVTVSS
VL: EIVMTQSPATLSVSPGERATLSCRASQTVTRNLAWYQQKPGQAPRLLIYGASTRATGIPARFSGSGSGTEFTLTIGSLQSEDFAVYYCQQYKSWPRSFGQGTNVEIK
notes: Whole antibody with human variable regions and mouse constant regions (pMABG2a, pMABK); also called R8C11+L4G6
Broadly, the Kd is the concentration at which binding is half-saturated. What is called EC50 (read off the curve) is the concentration that produces a half-maximal response. With B1, in test [1], the Kd was found to be 11.8 nM. Further, in test [2], the “EC50 (read off the curve)” value is approximately 2 nM.

B2: R7C8+L1E2 (Fab clone from the recombinant human phage antibody library) (Fab, V domains shown)
VH: B1 VH with S102T, F103Y, D107E
VL: B1 VL with T30N, S93T, S97T
As to B2, in test [3], the binding result was “binds”.

B3: R8C11VH/L3B4VK-mIgG2a (antibody, V domains shown)
VH: B1 VH
VL: B1 VL with S97T
notes: Whole antibody with human variable regions and mouse constant regions (pMABG2a, pMABK); also called R8C11+L3B4
B3: the dissociation constant (Kd) in test [1] worked out at 11.2 nM.
